From publication PMC10783490, “Biochemical and cellular insights into the Baz2B protein, a non-catalytic subunit of the chromatin remodeling complex” (Nucleic Acids Research, 2023)

Experiments:
Test in all cases: MST; 100 nM fluorescently labelled (RED-NHS) BRD^Baz2B, peptide (H3 or H3K14ac) titrated; MST buffer 150 mM Tris-HCl, 50 mM NaCl, 10 mM MgCl2, pH 7.6, 0.0025% Pluronic, 200 ng/ul BSA; 25 C, 20% MST power; at least triplicate
Details in all cases: both partners purified
[1] = biological target: T1, His6-BRD^Baz2B (bromodomain of human Baz2B, wild-type) (human, UniProt Q9UIF8 2054-2168, fluorescent label (Monolith NT Protein Labelling Kit RED-NHS))
T1 construct: bromodomain (BRD) of human Baz2B, from plasmid pNIC28-Bsa4-BAZ2B-BRD; also called BAZ2B-BRD; source: E. coli BL21(DE3)-R3-pRARE2, purified (Ni-NTA, Sephadex 75)
T1 sequence: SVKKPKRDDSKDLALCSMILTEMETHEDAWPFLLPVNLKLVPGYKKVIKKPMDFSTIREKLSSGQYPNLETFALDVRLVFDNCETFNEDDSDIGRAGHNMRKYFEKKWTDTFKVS

BRD^Baz2B L2127V = biological target: T2, BRD^Baz2B L2127V (human, UniProt Q9UIF8 2054-2168, L2127V, fluorescent label (Monolith NT Protein Labelling Kit RED-NHS))
T2 construct: bromodomain (BRD) of human Baz2B with a cancer-associated point mutation, made on pNIC28-Bsa4-BAZ2B-BRD; Same limits as m1; mutation found in breast cancer; source: E. coli BL21(DE3)-R3-pRARE2, purified (Ni-NTA, Sephadex 75)
T2 sequence: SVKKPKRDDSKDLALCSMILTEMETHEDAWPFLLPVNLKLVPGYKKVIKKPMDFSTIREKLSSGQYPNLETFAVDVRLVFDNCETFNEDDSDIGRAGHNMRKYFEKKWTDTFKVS

[2] = biological target: T1, His6-BRD^Baz2B (bromodomain of human …); remark: listed apart in the source
BRD^Baz2B D2143N = biological target: T3, BRD^Baz2B D2143N (human, UniProt Q9UIF8 2054-2168, D2143N, fluorescent label (Monolith NT Protein Labelling Kit RED-NHS))
T3 construct: bromodomain (BRD) of human Baz2B with a cancer-associated point mutation, made on pNIC28-Bsa4-BAZ2B-BRD; Same limits as m1; mutation found in breast invasive carcinoma; source: E. coli BL21(DE3)-R3-pRARE2, purified (Ni-NTA, Sephadex 75)
T3 sequence: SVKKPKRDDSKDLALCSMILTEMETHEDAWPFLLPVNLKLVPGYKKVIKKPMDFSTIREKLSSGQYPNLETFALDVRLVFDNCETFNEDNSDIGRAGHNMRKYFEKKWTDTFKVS

BRD^Baz2B L2073V = biological target: T4, BRD^Baz2B L2073V (human, UniProt Q9UIF8 2054-2168, L2073V, fluorescent label (Monolith NT Protein Labelling Kit RED-NHS))
T4 construct: bromodomain (BRD) of human Baz2B with a cancer-associated point mutation, made on pNIC28-Bsa4-BAZ2B-BRD; Same limits as m1; mutation found in pancreatic cancer (COSMIC/ICGC); source: E. coli BL21(DE3)-R3-pRARE2, purified (Ni-NTA, Sephadex 75)
T4 sequence: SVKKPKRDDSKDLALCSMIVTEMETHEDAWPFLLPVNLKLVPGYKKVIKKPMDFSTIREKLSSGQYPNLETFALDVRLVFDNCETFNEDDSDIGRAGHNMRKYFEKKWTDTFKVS

BRD^Baz2B F2139C = biological target: T5, BRD^Baz2B F2139C (human, UniProt Q9UIF8 2054-2168, F2139C, fluorescent label (Monolith NT Protein Labelling Kit RED-NHS))
T5 construct: bromodomain (BRD) of human Baz2B with a cancer-associated point mutation, made on pNIC28-Bsa4-BAZ2B-BRD; Same limits as m1; mutation found in endometrial cancer; source: E. coli BL21(DE3)-R3-pRARE2, purified (Ni-NTA, Sephadex 75)
T5 sequence: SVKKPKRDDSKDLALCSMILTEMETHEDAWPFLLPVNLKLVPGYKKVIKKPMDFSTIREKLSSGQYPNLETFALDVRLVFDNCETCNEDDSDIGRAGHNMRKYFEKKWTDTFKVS

BRD^Baz2B T2138I = biological target: T6, BRD^Baz2B T2138I (human, UniProt Q9UIF8 2054-2168, T2138I, fluorescent label (Monolith NT Protein Labelling Kit RED-NHS))
T6 construct: bromodomain (BRD) of human Baz2B with a cancer-associated point mutation, made on pNIC28-Bsa4-BAZ2B-BRD; Same limits as m1; mutation found in multiple myeloma; source: E. coli BL21(DE3)-R3-pRARE2, purified (Ni-NTA, Sephadex 75)
T6 sequence: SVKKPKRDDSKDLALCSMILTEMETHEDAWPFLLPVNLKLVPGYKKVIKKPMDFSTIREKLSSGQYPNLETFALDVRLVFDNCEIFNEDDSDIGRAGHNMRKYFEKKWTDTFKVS

BRD^Baz2B K2098N = biological target: T7, BRD^Baz2B K2098N (human, UniProt Q9UIF8 2054-2168, K2098N, fluorescent label (Monolith NT Protein Labelling Kit RED-NHS))
T7 construct: bromodomain (BRD) of human Baz2B with a cancer-associated point mutation, made on pNIC28-Bsa4-BAZ2B-BRD; Same limits as m1; mutation found in multiple myeloma; source: E. coli BL21(DE3)-R3-pRARE2, purified (Ni-NTA, Sephadex 75)
T7 sequence: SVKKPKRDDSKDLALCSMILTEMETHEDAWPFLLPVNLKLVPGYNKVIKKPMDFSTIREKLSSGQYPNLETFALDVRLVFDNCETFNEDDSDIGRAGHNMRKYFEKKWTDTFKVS

B1: H3 peptide (Ac-TARKSTGGKAPRKQL-NH2) (peptide)
peptide: Ac-TARKSTGGKAPRKQL-NH2
notes: N-terminal tail of histone H3, residues 6-20; also called unmodified H3 peptide; unmodified H3K14 tail peptide; source: synthetic peptide, bought: alta Bioscience
B1 gave a Kd [1] of 288 µM, a Kd (BRD^Baz2B L2127V) of 1700 nM and a Kd [2] of over 288 µM. It also gave a Kd (BRD^Baz2B D2143N) of 42 µM, a Kd (BRD^Baz2B L2073V) of 7 µM and a Kd (BRD^Baz2B F2139C) of over 798 µM. For the same binder, the Kd (BRD^Baz2B T2138I) was 211 µM and the Kd (BRD^Baz2B K2098N) was 8 µM.
